Data taken from article PMC3219669.

What was measured:
[1] = molecular target: Gβ1 and YFP-Gγ2 expressed from the Gβ1-2A-YFP-Gγ2 unit; experiment: FRET or BRET; FLIM of the mTurquoise donor (phase and modulation lifetimes) in living HeLa cells, room temperature; all three subunits from the single plasmid Gα-IRES-Gβ-2A-Gγ
[2] = molecular target: Gβ1 and YFP-Gγ2 expressed from the Gβ1-2A-YFP-Gγ2 unit; experiment: FRET or BRET; FLIM of the mTurquoise donor (phase and modulation lifetimes) in living HeLa cells, room temperature; all three subunits from the single plasmid Gβ-2A-Gγ-IRES-Gα

FRET efficiency from the modulation lifetime (E τM) [1]: 7%
FRET efficiency from the phase lifetime (E τϕ) [1]: 14%
FRET efficiency from the modulation lifetime (E τM) [2]: 19%
FRET efficiency from the phase lifetime (E τϕ) [2]: 27%
Substance: Gαq-mTurquoiseΔ6 (from UniProt P50148 1-359) (natural protein)
